These results are taken from patent US5928933A, “Process for the enzymatic resolution of N-(alkoxycarbonyl)-4-ketoproline alkyl esters or N-(alkoxycarbonyl)-4-hydroxyproline alkyl esters using Candida antarctica lipase B” (priority 1998, dated 1999).

Common to all, as to type: biochemical
A short description of data set [1]: Enzyme screens for resolution of racemic N-(methoxycarbonyl)-4-keto-D,L-proline methyl ester (Example 1). The settings on record: 0.100M racemate, 5.0 to 50 mg/mL enzyme, 25° C., optimum; for conv. (percent conversion of the racemate): 0.20M sodium succinate pH 6.0, 5 h or 0.20M sodium acetate pH 5.0, 24 h; for % ee (enantiomeric excess of the D-isomer; L-isomer with porcine liver esterase): pH 6.0, 5 h or pH 5.0, 24 h. How it is done: An aqueous solution (1.0 mL) containing 0.100M racemic N-(methoxycarbonyl)-4-keto-D,L-proline methyl ester in either 0.20M sodium succinate (pH 6.0) or 0.20M sodium acetate (pH 5.0) was mixed with 5.0 to 50 mg/mL of commercial enzyme preparations (listed in the table below) at 25° C. […] The dichloromethane extract was then analyzed by chiral gas chromatography on a Chiraldex G-TA column (Advanced Separation Technologies, Inc., 50 m×0.32 mm ID) to determine the percent conversion of the racemate, and the enantiomeric excess of the N-(methoxycarbonyl)-4-keto-D-proline methyl ester.

Data set [2] can be described thus: Enzyme screens for resolution of racemic N-(acetyl)-4-keto-D,L-proline methyl ester (Example 7, comparative). The following applies: 0.100M racemate, 5 h, 5.0 to 30 mg/mL enzyme, 25° C.; for conv. (percent conversion of the racemate): 0.20M sodium succinate pH 6.0; for % ee (enantiomeric excess of the D-isomer): pH 6.0. How it is done: An aqueous solution (1.0 mL) containing 0.100M racemic N-(acetyl)-4-keto-D,L-proline methyl ester in 0.20M sodium succinate (pH 6.0) was mixed with 5.0 to 30 mg/mL of commercial enzyme preparations (listed in the table below) at 25° C. […] The dichloromethane extract was then analyzed by chiral gas chromatography on a Chiraldex G-TA column (Advanced Separation Technologies, Inc., 50 m×0.32 mm ID) to determine the percent conversion of the racemate, and the enantiomeric excess of the N-(acetyl)-4-keto-D-proline methyl ester.

Data set [3] is described as follows: Enzyme screens for resolution of diastereomeric mixture CHDP(MEMC)/THLP(MEMC) (Example 9). The following applies: 0.050M each isomer, 5 h or 24 h, 5.0 to 50 mg/mL enzyme, 25° C.; for conv. (percent conversion of the diastereomeric mixture): 0.100M potassium phosphate pH 7.0; for % de (diastereomeric excess of the D-isomer, CHDP(MEMC)): pH 7.0. The protocol:
(§1) An aqueous solution (1.0 mL) containing 0.050M N-(methoxycarbonyl)-trans-4-hydroxy-L-proline methyl ester and 0.050M N-(methoxycarbonyl)-cis-4-hydroxy-D-proline methyl ester in 0.100M potassium phosphate (pH 7.0) was mixed with 5.0 to 50 mg/mL of commercial enzyme preparations (listed in the table below) at 25° C. The reactions were analyzed after 5 h or 24 h by removal of a 0.200 mL sample and mixing with an equivalent volume of 0.100M propionic acid (HPLC internal standard) in water. The resulting solution was filtered through a 10K molecular weight cut-off filter to remove the enzyme and the filtrate analyzed by high pressure liquid chromatography on a HPX-87H column (Bio-Rad, 30 cm×7.8 mm) to determine the percent conversion of each isomer of the diastereomeric mixture, and the diastereomeric excess of the N-(methoxycarbonyl)-cis-4-hydroxy-D-proline methyl ester.

A short description of data set [4]: Enzyme screens for resolution of diastereomeric mixture CHLP(MEMC)/THLP(MEMC) (Example 13). The following applies: 0.050M each isomer, 5 h, 5.0 to 50 mg/mL enzyme, 25° C.; for conv. (percent conversion of the diastereomeric mixture): 0.100M potassium phosphate pH 7.0; for % de (diastereomeric excess of the cis-L-isomer): pH 7.0. The protocol:
as §1, with “solution” for “solution (1.0 mL)”, “N-(methoxycarbonyl)-cis-4-hydroxy-L-proline” for “N-(methoxycarbonyl)-cis-4-hydroxy-D-proline”, “5” for “5 h or 24”, “of” for “of each isomer of”

Data set [5] is described as follows: Enzyme screens for resolution of racemic N-(methoxycarbonyl)-4,4-dimethoxy-D,L-proline methyl ester (Example 8, comparative). The settings on record: 0.100M racemate, 6 h or 17 h, 5.0 to 30 mg/mL enzyme, 25° C.; for conv. (percent conversion of the racemate): 0.25M potassium phosphate pH 7.0; for % ee (enantiomeric excess of the D-isomer): pH 7.0. How it is done: An aqueous solution (1.0 mL) containing 0.100M racemic N-(methoxycarbonyl)-4,4-dimethoxy-D,L-proline methyl ester in 0.25M potassium phosphate (pH 7.0) was mixed with 5.0 to 30 mg/mL of commercial enzyme preparations (listed in the table below) at 25° C. […] The ethyl acetate extract was then analyzed by chiral gas chromatography on a Chiraldex G-TA column (Advanced Separation Technologies, Inc., 50 m×0.32 mm ID) to determine the percent conversion of the racemate, and the enantiomeric excess of N-(methoxycarbonyl)-4,4-dimethoxy-D-prolinemethyl ester.

As to “protease, chymopapain: commercial enzyme preparation, source papaya latex”, in data set [1], the “conv. (percent conversion of the racemate)” value is recorded as 0% and the “% ee (enantiomeric excess of the D-isomer; L-isomer with porcine liver esterase)” value was 0%. For the same molecule, in data set [2], the “conv. (percent conversion of the racemate)” value is 0% and the “% ee (enantiomeric excess of the D-isomer)” value is 0%. Also, in data set [3], the “conv. (percent conversion of the diastereomeric mixture)” value is 0% and the “% de (diastereomeric excess of the D-isomer, CHDP(MEMC))” value came to 0%. In data set [4], the “conv. (percent conversion of the diastereomeric mixture)” value amounted to 0% and the “% de (diastereomeric excess of the cis-L-isomer)” value came to 0%.
In the case of “protease, pepsin: commercial enzyme preparation, source porcine stomach mucosa”, in data set [1], the “conv. (percent conversion of the racemate)” value came to 0% and the “% ee (enantiomeric excess of the D-isomer; L-isomer with porcine liver esterase)” value came to 0%. Also, in data set [2], the “conv. (percent conversion of the racemate)” value was found to be 0% and the “% ee (enantiomeric excess of the D-isomer)” value amounted to 0%. Also, in data set [3], the “conv. (percent conversion of the diastereomeric mixture)” value came to 0% and the “% de (diastereomeric excess of the D-isomer, CHDP(MEMC))” value was 0%. Moreover, in data set [4], the “conv. (percent conversion of the diastereomeric mixture)” value worked out at 0% and the “% de (diastereomeric excess of the cis-L-isomer)” value came to 0%.

B1: protease, trypsin porcine pancreas: commercial trypsin, source porcine pancreas (protein, UniProt P00761 9-231, looked up)
Trypsin: IVGGYTCAANSIPYQVSLNSGSHFCGGSLINSQWVVSAAHCYKSRIQVRLGEHNIDVLEGNEQFINAAKIITHPNFNGNTLDNDIMLIKLSSPATLNSRVATVSLPRSCAAAGTECLISGWGNTKSSGSSYPSLLQCLKAPVLSDSSCKSSYPGQITGNMICVGFLEGGKDSCQGDSGGPVVCNGQLQGIVSWGYGCAQKNKPGVYTKVCNYVNWIQQTIAAN
Regarding B1, in data set [1], the “conv. (percent conversion of the racemate)” value is on record as 0% and the “% ee (enantiomeric excess of the D-isomer; L-isomer with porcine liver esterase)” value came out at 0%. Besides, in data set [2], the “conv. (percent conversion of the racemate)” value came to 0% and the “% ee (enantiomeric excess of the D-isomer)” value amounted to 0%. For the same molecule, in data set [3], the “conv. (percent conversion of the diastereomeric mixture)” value was 0% and the “% de (diastereomeric excess of the D-isomer, CHDP(MEMC))” value amounted to 0%. Further, in data set [4], the “conv. (percent conversion of the diastereomeric mixture)” value is listed as 0% and the “% de (diastereomeric excess of the cis-L-isomer)” value stood at 0%.

B2: protease, type XXVII: commercial enzyme preparation, (Nagarase) (protein, UniProt P00782 108-382, looked up)
Subtilisin BPN': AQSVPYGVSQIKAPALHSQGYTGSNVKVAVIDSGIDSSHPDLKVAGGASMVPSETNPFQDNNSHGTHVAGTVAALNNSIGVLGVAPSASLYAVKVLGADGSGQYSWIINGIEWAIANNMDVINMSLGGPSGSAALKAAVDKAVASGVVVVAAAGNEGTSGSSSTVGYPGKYPSVIAVGAVDSSNQRASFSSVGPELDVMAPGVSIQSTLPGNKYGAYNGTSMASPHVAGAAALILSKHPNWTNTQVRSSLENTTTKLGDSFYYGKGLINVQAAAQ
Consider B2, for which, in data set [1], the “conv. (percent conversion of the racemate)” value turned out to be 27% and the “% ee (enantiomeric excess of the D-isomer; L-isomer with porcine liver esterase)” value was 21%. For the same molecule, in data set [5], the “conv. (percent conversion of the racemate)” value amounted to 44% and the “% ee (enantiomeric excess of the D-isomer)” value came to 30%. Also, in data set [3], the “conv. (percent conversion of the diastereomeric mixture)” value was found to be 2% and the “% de (diastereomeric excess of the D-isomer, CHDP(MEMC))” value is given as 4%. Besides, in data set [4], the “conv. (percent conversion of the diastereomeric mixture)” value is recorded as 17% and the “% de (diastereomeric excess of the cis-L-isomer)” value turned out to be 16%.

B3: protease, type XXIV: commercial enzyme preparation, source bacterial (subtil. Carlsberg) (protein, UniProt P00780 106-379, looked up)
Subtilisin Carlsberg: AQTVPYGIPLIKADKVQAQGFKGANVKVAVLDTGIQASHPDLNVVGGASFVAGEAYNTDGNGHGTHVAGTVAALDNTTGVLGVAPSVSLYAVKVLNSSGSGSYSGIVSGIEWATTNGMDVINMSLGGASGSTAMKQAVDNAYAKGVVVVAAAGNSGSSGNTNTIGYPAKYDSVIAVGAVDSNSNRASFSSVGAELEVMAPGAGVYSTYPTNTYATLNGTSMASPHVAGAAALILSKHPNLSASQVRNRLSSTATYLGSSFYYGKGLINVEAAAQ
Regarding B3, in data set [1], the “conv. (percent conversion of the racemate)” value is 17% and the “% ee (enantiomeric excess of the D-isomer; L-isomer with porcine liver esterase)” value came out at 18%. In data set [5], the “conv. (percent conversion of the racemate)” value was 42% and the “% ee (enantiomeric excess of the D-isomer)” value is 22%. In addition, in data set [3], the “conv. (percent conversion of the diastereomeric mixture)” value came to 16% and the “% de (diastereomeric excess of the D-isomer, CHDP(MEMC))” value is reported as 16%. Also, in data set [4], the “conv. (percent conversion of the diastereomeric mixture)” value was determined as 6% and the “% de (diastereomeric excess of the cis-L-isomer)” value was found to be 5%.

B4: protease (Chirazyme P1): commercial enzyme preparation, source Bacillus licheniformis (protein, UniProt P00780 106-379, looked up)
Subtilisin Carlsberg: B3 Subtilisin Carlsberg
For B4, in data set [1], the “conv. (percent conversion of the racemate)” value is recorded as 54% and the “% ee (enantiomeric excess of the D-isomer; L-isomer with porcine liver esterase)” value was 65%. In data set [2], the “conv. (percent conversion of the racemate)” value is reported as 43% and the “% ee (enantiomeric excess of the D-isomer)” value was found to be 37%. Besides, in data set [5], the “conv. (percent conversion of the racemate)” value turned out to be 44% and the “% ee (enantiomeric excess of the D-isomer)” value was 22%. In data set [3], the “conv. (percent conversion of the diastereomeric mixture)” value turned out to be 28% and the “% de (diastereomeric excess of the D-isomer, CHDP(MEMC))” value came to 26%. For the same molecule, in data set [4], the “conv. (percent conversion of the diastereomeric mixture)” value is given as 25% and the “% de (diastereomeric excess of the cis-L-isomer)” value was found to be 31%.

B5: protease, type X: commercial enzyme preparation, source B. thermoproteoliticus rokko (protein, UniProt P00800 233-548, looked up)
Thermolysin: ITGTSTVGVGRGVLGDQKNINTTYSTYYYLQDNTRGNGIFTYDAKYRTTLPGSLWADADNQFFASYDAPAVDAHYYAGVTYDYYKNVHNRLSYDGNNAAIRSSVHYSQGYNNAFWNGSQMVYGDGDGQTFIPLSGGIDVVAHELTHAVTDYTAGLIYQNESGAINEAISDIFGTLVEFYANKNPDWEIGEDVYTPGISGDSLRSMSDPAKYGDPDHYSKRYTGTQDNGGVHINSGIINKAAYLISQGGTHYGVSVVGIGRDKLGKIFYRALTQYLTPTSNFSQLRAAAVQSATDLYGSTSQEVASVKQAFDAVGVK
As for B5, in data set [1], the “conv. (percent conversion of the racemate)” value is recorded as 0% and the “% ee (enantiomeric excess of the D-isomer; L-isomer with porcine liver esterase)” value amounted to 0%. Further, in data set [2], the “conv. (percent conversion of the racemate)” value stood at 0% and the “% ee (enantiomeric excess of the D-isomer)” value came to 0%. Moreover, in data set [3], the “conv. (percent conversion of the diastereomeric mixture)” value is listed as 0% and the “% de (diastereomeric excess of the D-isomer, CHDP(MEMC))” value was 0%. Besides, in data set [4], the “conv. (percent conversion of the diastereomeric mixture)” value was 0% and the “% de (diastereomeric excess of the cis-L-isomer)” value came out at 0%.
